{"source": "patent US9364516B2", "about": "“Treatment of fibrosis-related disorders using fibronectin binding proteins and polypeptides” (priority 2010, dated 2016)", "key": {"[1]": {"biological_target": "fibronectin-collagen interactions (Homo sapiens, UniProt P02751)", "sequence (P02751 32-2477)": "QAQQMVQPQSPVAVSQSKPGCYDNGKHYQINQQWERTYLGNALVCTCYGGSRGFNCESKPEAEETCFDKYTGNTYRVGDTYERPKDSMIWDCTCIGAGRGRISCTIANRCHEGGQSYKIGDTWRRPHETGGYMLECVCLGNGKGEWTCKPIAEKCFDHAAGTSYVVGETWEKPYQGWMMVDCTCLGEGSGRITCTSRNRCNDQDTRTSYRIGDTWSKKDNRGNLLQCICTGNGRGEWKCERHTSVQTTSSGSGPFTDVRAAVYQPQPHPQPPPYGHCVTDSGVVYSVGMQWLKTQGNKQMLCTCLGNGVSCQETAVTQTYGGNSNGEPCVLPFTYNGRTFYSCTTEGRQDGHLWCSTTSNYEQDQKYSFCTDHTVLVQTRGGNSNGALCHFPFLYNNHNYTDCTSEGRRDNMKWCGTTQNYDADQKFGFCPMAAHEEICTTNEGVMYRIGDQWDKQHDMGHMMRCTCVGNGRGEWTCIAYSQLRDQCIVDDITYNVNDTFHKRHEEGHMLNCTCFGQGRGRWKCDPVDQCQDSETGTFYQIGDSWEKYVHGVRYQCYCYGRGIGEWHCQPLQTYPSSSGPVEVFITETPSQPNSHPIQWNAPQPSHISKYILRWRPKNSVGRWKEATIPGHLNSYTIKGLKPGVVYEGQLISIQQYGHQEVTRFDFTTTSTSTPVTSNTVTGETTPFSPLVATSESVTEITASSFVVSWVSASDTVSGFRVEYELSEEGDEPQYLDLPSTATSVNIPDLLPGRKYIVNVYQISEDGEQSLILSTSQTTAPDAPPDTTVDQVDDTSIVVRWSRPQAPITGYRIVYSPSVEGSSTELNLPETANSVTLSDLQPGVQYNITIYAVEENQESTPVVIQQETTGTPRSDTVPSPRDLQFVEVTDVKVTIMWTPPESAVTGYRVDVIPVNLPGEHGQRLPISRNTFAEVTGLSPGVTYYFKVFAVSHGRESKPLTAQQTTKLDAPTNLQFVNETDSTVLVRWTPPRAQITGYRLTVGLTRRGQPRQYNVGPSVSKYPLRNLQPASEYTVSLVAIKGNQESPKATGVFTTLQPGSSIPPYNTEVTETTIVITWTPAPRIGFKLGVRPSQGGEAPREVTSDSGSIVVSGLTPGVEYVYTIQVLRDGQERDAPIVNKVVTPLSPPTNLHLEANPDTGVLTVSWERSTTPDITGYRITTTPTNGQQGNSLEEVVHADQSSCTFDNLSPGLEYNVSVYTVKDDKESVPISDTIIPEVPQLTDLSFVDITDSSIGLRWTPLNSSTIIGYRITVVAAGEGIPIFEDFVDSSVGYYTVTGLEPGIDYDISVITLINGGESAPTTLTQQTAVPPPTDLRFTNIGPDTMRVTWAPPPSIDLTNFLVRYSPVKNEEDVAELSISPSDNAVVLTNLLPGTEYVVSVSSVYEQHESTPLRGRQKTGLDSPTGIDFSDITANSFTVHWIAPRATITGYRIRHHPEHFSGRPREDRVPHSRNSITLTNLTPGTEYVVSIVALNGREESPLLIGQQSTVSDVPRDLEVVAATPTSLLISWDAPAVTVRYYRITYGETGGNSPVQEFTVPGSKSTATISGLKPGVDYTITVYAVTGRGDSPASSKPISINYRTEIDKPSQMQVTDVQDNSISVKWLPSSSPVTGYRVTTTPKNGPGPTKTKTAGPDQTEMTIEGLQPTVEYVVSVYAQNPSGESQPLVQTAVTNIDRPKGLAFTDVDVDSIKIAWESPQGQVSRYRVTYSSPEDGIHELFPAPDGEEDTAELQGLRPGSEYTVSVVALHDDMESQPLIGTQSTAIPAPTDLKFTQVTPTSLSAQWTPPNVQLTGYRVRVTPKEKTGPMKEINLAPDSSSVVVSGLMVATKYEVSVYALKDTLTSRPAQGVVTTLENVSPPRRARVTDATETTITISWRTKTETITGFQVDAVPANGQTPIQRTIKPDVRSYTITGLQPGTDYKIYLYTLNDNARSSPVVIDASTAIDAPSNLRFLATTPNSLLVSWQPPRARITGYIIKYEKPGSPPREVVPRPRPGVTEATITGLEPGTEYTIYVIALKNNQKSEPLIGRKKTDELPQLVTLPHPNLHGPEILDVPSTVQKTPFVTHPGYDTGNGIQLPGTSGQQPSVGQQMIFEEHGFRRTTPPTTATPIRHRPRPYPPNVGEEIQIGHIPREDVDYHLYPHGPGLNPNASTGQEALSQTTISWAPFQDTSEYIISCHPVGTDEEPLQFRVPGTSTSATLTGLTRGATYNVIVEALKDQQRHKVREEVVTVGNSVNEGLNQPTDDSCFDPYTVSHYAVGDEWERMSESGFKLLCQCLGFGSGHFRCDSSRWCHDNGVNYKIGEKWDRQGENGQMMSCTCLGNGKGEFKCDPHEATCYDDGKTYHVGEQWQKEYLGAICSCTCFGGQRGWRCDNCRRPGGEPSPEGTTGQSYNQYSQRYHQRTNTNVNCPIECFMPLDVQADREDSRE", "experiment": "Blocking of fibronectin-collagen interactions in cell culture", "assay_type": "cell-based", "conditions": "cell culture experiments"}, "human saphenous veins": {"tested_on": "human saphenous veins", "experiment": "Ex vivo cultured human saphenous veins, intimal thickening", "conditions": "10× higher levels than 100-500 nM", "protocol": "Saphenous veins were cut into 0.5 cm segments, and processed immediately (●) or cultured in 10% FBS/M199 containing 15 μM control III-11c peptide (▪) or pUR4 (▴) at 37° C. for 14 days. Veins were fixed, paraffin embedded, sectioned, and stained. Morphometric analysis was performed on six randomly chosen sections using Image-Pro Plus software. The intima/media ratio was determined by dividing intima area by media area. Paired student t-test was used to analyze the data. Data are expressed as mean±S.E.M. *p<0.05.\nHuman saphenous veins cultured in serum containing media develop intimal hyperplasia after 14 days in culture (Soyombo et al., “Intimal Proliferation in an Organ Culture of Human Saphenous Vein,” Am J Pathol. 137(6):1401-1410 (1990); Angelini et al., “Smooth Muscle Cell Proliferation in Response to Injury in an Organ Culture of Human Saphenous Vein,” Eur J Vasc Surg. 5(1):5-12 (1991); and Slomp et al., “Nature and Origin of the Neointima in Whole Vessel Wall Organ Culture of the Human Saphenous Vein,” Virchows Arch. 428(1):59-67 (1996), which are hereby incorporated by reference in their entirety). This system thus provides an ex vivo model system for studying mechanisms that lead to intimal hyperplasia that has distinct advantages over in vitro culture systems. […]"}}}
{"molecule": "R1R2: class II bacterial adhesin derived peptide (SEQ ID NO: 4) that interferes with fibronectin-collagen binding (Bacterial adhesin derived peptide R1R2) HHHHHHGSGLNGENQKEPEQGERGEAGPPLSGLSGNNQGRPSLPGLNGENQKEPEQGERGEAGPPKSN", "values": [{"measurement": "concentrations effective at blocking fibronectin-collagen interactions", "setting": "[1]", "value": "100 to 500", "unit": "nM"}, {"measurement": "intimal hyperplasia", "setting": "human saphenous veins", "value": "attenuate"}]}
